A word on the Kd: it is a measure of binding affinity in units of concentration. Read a high Kd as a looser complex.

In patent publication US20200040070A1 (CHEMOMAB, published 2020) one finds Kd data, which are given here for one molecule.

One test addresses MCP3 (CCL7) (UniProt P80098 24-99). Kind of test: SPR (Biacore T200), HCM101 immobilized on CM-1 chip, chemokine in solution; MCP3 (CCL7). How it is done:
(§1) The affinity constant of HCM101 was evaluated using Biacore T200. This method uses Surface Plasmon Resonance (SPR) electro-optical phenomenon to measure the binding constants and on/off rates between binding partners. HCM101 was immobilized on a surface of a CM-1 chip, and a solution of eotaxin 1 (CCL11)/MCP3 (CCL7) was passed over the surface. The changes in SPR angle were measured and enabled to determine the KD (equilibrium dissociation constant).
(§2) Biacore, an SPR based technology was used in order to examine the binding affinity of HCM101, generated by CHO cells, to other, non-CCL24 chemokines.
(In general: SPR reads the build-up and loss of mass on a sensor chip optically.)

The target in a further test is T1, Eotaxin 1 (CCL11) (human, UniProt P51671 24-97).
T1 construct: also called human CCL11
T1 sequence (P51671 24-97 limits assumed): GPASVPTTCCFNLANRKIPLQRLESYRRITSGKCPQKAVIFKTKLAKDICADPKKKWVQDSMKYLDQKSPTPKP
Kind of test: SPR (Biacore T200), HCM101 immobilized on CM-1 chip, chemokine in solution; Eotaxin 1 (CCL11). As for the experimental part:
as §1, §2

MCP3 (CCL7), sequence (P80098 24-99 limits assumed): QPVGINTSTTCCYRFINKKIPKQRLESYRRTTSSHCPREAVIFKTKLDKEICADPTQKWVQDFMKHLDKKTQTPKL

B1: fully humanized anti CCL24 antibody HCM101 (antibody, V domains shown)
VH: QIQLVQSGPELKKPGASVKVSCRASGYPFTNSGMNWVKQAPGKGLKWMGWINTYNGEPTYTDDFKGRFAFSLETSASTAYLQINNLRNEDTATYFCASHSYGSSYAMDNWGQGTSVTVSS
VL: DIVLTQSPDSLAVSLGERATINCKASQSVDYDGDSYMNWYQQKPGQPPKLLIYVASNLKSGIPARFSGSGSGTDFTLTISSLQPEDFATYYCQQSNEEPWTFGGGTKVEIK
notes: also called humanized version of CM101
B1: the Kd with MCP3 (CCL7) came out at 130 nM; in the test with Eotaxin 1 (CCL11) it was 30 nM.
